Earlier results in paper PMC4547496.

Tests used:
[1] = molecular target: BAG family nucleotide exchange factor (Homo sapiens) (UniProt Q99933); assay: FCPIA
[2] = molecular target: Gαo (Homo sapiens) (UniProt P09471); assay: FCPIA
UniProt P09471, sequence (P09471 2-354): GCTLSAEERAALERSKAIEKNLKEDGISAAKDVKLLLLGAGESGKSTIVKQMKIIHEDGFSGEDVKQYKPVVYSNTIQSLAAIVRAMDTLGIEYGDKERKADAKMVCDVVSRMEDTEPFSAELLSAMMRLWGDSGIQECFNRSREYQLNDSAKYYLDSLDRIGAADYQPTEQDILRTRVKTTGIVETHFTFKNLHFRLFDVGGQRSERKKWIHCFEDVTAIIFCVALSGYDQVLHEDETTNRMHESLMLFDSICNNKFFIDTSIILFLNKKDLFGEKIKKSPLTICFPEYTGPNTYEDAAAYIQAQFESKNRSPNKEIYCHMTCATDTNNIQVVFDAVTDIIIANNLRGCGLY

UniProt Q99933, sequence (Q99933 whole entry): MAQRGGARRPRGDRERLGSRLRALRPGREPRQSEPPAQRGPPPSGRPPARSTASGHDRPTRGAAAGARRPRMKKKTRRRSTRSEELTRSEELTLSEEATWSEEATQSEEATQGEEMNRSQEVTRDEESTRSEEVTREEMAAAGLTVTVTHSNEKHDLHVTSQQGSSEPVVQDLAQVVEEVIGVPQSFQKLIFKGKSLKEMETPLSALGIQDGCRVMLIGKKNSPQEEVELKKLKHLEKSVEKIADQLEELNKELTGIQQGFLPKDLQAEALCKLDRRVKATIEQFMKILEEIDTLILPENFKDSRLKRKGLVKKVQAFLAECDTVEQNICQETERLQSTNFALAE

| Substance | Kd [1] | Kd [2] |
| --- | --- | --- |
| Hsp70 (from UniProt P0DMV8) | 1000 nM | – |
| RGS4 (from UniProt P49798) | – | 4 nM |
